This note sets out measurements from PMC4231748, “Human PrimPol mutation associated with high myopia has a DNA replication defect”.

As usually defined, the Kd is the equilibrium constant for the complex coming apart.

This data set addresses T1, PrimPol1-354 (polymerase domain, wild type) (human, UniProt Q96LW4 1-354).
T1 sequence: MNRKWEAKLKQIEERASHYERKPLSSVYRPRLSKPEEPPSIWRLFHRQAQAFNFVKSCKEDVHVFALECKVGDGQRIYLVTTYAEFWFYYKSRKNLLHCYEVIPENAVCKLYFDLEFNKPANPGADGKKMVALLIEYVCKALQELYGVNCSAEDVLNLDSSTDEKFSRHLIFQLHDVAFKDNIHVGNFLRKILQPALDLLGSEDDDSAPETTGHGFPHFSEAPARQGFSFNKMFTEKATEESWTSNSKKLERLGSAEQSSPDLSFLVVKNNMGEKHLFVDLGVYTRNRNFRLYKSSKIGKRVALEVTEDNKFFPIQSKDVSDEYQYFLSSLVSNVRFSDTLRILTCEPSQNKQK
The data set can be described thus: EMSA; 10 mM Mg2+; text gives 0.67 uM, Figure 5 legend 0.69 uM; EMSA: 60 nM DNA, 10 mM Bis-Tris-Propane-HCl pH 7.0, 10 mM MgCl2, 1 mM DTT, 25 C, 60 min; 5% polyacrylamide gel in 0.5x TBE. To be noted: protein: recombinant; label: 5'-Hex on strand 1 (HP-20); 20 bp duplex, 5' overhang 30 nt on template strand (S12), other end blunt.

B1: Overhanging DNA substrate (HP-20 primer / ND-50 TemplateTT) (dsDNA)
DNA 1: TGTCGTCTGTTCGGTCGTTC
DNA 2: CGCGCAGGGCGCACAACAGCCTTGAAGACCGAACGACCGAACAGACGACA
As to B1, the Kd turned out to be 690 nM.
